In patent US20220056125A1 (CEPHALON, published 2022):
Numbering of substitutions follows the chain as printed. Names and notes keep the numbering of the source. Blank lines part the entries; values can stand above or below the binder they belong to.

What was measured:
[1] = biological target: T1, human PAR-1 (human, UniProt P25116 22-425); assay: flow cytometry, transfected Expi293F cells
T1 construct: also called huPAR-1
T1 sequence: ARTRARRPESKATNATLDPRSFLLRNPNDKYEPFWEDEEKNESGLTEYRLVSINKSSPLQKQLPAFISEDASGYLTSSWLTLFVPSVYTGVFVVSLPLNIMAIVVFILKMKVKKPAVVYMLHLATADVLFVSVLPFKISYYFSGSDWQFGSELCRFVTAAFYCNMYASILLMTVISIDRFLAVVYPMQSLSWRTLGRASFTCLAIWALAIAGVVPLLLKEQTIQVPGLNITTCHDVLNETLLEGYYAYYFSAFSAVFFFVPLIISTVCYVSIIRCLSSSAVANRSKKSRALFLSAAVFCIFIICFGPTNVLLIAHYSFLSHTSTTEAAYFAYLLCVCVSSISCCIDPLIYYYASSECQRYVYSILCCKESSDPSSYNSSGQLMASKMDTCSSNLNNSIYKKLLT
Description: Paired heavy and light chains encoded by these sequence pairs were expressed as a full length human IgG4 isotype antibodies and assessed for PAR-2 binding and selectivity by flow cytometry. […] Cells were used for flow cytometric analysis 36-48 hours post-transfection. Use of Nt-PAR-2 as a target allowed antibodies which bound the N-terminal residues of PAR-2 (which comprise the protease-cleavage sites on PAR-2) to be distinguished from antibodies which bound other extracellular sites on PAR-2, such as the PAR-2-activating ligand-binding site(s). Expi293F cells, transiently expressing one of each of the different target proteins were labelled with different intensities of a single fluorphor Encoder dye (Intellicyt) for 10 mins at either 1 in 250 dilution for high intensity and/or 1 in 1500 dilution for moderate intensity, enabling simultaneous analysis of multiple cell populations. After washing the cells were then mixed in an equal ratio with the unlabeled cell type and analyzed for antibody binding.
(§1) The cells were plated in 96 well plates at 2×10⁵ cells/well. Following a wash step using Phosphate buffered saline (PBS), the primary antibody (anti-PAR-2 antibody) was added at a concentration of 10 μg/mL in 50 μL of FACS buffer (0.5% w/v BSA in PBS) to each well and incubated for 10-15 mins. Following a wash step, secondary antibody (anti-human Fc-FITC) was added to the wells at 1:200 dilution in 50 μL for 10-15 mins. Following a washing step, the cells were re-suspended in fluorescence-activated cell sorting (FACS) buffer. The flow cytometry analysis was performed on an Intellicyt iQue screener. Gates were drawn around the different intensities of encoder dye-positive cells and these populations were analyzed separately from each other and the unlabeled cells for binding by the primary antibody.

[2] = biological target: T2, human PAR-2 (human, UniProt P55085 26-397); assay: cell-based or functional assay
T2 sequence: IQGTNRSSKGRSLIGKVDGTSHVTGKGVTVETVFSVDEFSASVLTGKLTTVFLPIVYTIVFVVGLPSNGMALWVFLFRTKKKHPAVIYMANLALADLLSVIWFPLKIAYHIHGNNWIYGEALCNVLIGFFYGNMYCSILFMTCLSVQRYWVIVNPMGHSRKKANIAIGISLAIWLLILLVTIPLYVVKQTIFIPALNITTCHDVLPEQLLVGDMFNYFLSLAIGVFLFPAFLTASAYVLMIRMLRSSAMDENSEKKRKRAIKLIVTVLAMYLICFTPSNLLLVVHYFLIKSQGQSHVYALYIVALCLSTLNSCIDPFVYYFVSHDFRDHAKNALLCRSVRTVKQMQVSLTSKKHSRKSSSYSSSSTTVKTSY

[3] = biological target: T2, human PAR-2; assay: cell-based or functional assay; remark: listed apart in the source
[4] = biological target: T2, human PAR-2; assay: cell-based or functional assay; remark: listed apart in the source
[5] = biological target: T2, human PAR-2; assay: cell-based or functional assay; remark: listed apart in the source
[6] = biological target: T2, human PAR-2; assay: cell-based or functional assay; remark: listed apart in the source
[7] = biological target: T3, rat PAR-2 on cells (rat, UniProt Q63645 26-397); assay: flow cytometry, transiently transfected CHEM-1 cells
T3 construct: transiently transfected CHEM-1 cells
T3 sequence: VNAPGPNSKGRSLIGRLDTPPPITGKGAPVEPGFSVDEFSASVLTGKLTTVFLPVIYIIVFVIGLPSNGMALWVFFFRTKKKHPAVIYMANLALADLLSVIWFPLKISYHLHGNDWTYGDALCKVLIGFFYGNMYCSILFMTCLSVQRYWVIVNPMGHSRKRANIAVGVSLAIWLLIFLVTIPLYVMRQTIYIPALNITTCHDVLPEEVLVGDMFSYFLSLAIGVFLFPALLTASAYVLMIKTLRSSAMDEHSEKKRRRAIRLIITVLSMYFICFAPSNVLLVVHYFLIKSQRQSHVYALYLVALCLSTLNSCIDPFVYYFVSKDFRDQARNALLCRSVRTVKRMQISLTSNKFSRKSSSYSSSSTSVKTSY
Description: as §1
P24E1102 binding was also assessed by flow cytometry, as described in Example 1 supra, using PAR-2 transiently transfected into CHEM-1 cells. In addition to human, cynomolgus, mouse and rat, guinea pig, rabbit and dog PAR-2 were also tested. P24E1102 bound well to human and cynomolgus PAR-2 but minimally to all other species tested.

[8] = biological target: T2, human PAR-2; assay: cell-based or functional assay; remark: listed apart in the source
[9] = biological target: T2, human PAR-2; assay: cell-based or functional assay; remark: listed apart in the source
[10] = biological target: T4, recombinant human PAR-2 (human, UniProt P55085 37-397, limits assumed); assay: SPR, antibody captured on Protein A chip, recombinant PAR-2 injected
T4 construct: detergent-solubilised preparation used in SPR; also called recombinant PAR-2
T4 sequence: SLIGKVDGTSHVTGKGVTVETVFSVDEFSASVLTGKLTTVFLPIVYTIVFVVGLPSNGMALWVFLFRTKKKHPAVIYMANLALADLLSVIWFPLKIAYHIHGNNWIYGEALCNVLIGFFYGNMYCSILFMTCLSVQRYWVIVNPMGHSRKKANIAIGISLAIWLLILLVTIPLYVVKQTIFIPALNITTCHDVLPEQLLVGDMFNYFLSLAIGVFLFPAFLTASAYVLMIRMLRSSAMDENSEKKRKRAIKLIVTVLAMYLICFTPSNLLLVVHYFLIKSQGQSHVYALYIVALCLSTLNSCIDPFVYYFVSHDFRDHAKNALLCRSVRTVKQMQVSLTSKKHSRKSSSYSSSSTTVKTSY
Description: (§2) Selected antibodies were tested for binding to various species of PAR-2 using surface plasmon resonance (SPR) assay for antibody binding to recombinant PAR-2, except that human PAR-2 was substituted with PAR-2 from cynomolgus monkeys, rat, or mice.
(§3) Antibodies were transfected and harvested as described in Example 3, supra. Antibodies in supernatant were diluted 1 in 50-250 in running buffer (50 mM HEPES, 250 mM NaCl, 0.1% w/v LMNG, 0.025% w/v CHAPS, 0.005% CHS, pH 7.4) and purified antibodies were diluted to 0.5 ug/mL in running buffer A Series S Protein A chip was docked into the instrument (Biacore S20) and the system was primed four times with running buffer prior to the run. Recombinant human PAR-2 was diluted to 0-5 μg/mL in running buffer. The surface was regenerated using 50 mM NaOH. The antibody was captured to between 20 to 110 Relative Units on the chip surface. The sample (recombinant PAR-2) was injected for 1 min at 30 μl/min, followed by dissociation phase of 180s. Sensorgrams were double referenced by buffer subtraction and by reference cell subtraction. Binding curves were then fit to a 1:1 binding model with kinetic constants derived from curve fits. Antibodies were ranked by dissociation rate (kd) when only one concentration of antigen was injected. Antibodies were ranked by their equilibrium dissociation constant (KD) when multiple concentrations of PAR-2 were injected. […]

[11] = biological target: T5, recombinant cynomolgus monkey PAR-2 (cynomolgus monkey); assay: as above
T5 construct: also called cynomolgus PAR-2
Description: as §2, §3

T5 sequence (Q863Y8 other isoform, or with tags, fused parts or gaps): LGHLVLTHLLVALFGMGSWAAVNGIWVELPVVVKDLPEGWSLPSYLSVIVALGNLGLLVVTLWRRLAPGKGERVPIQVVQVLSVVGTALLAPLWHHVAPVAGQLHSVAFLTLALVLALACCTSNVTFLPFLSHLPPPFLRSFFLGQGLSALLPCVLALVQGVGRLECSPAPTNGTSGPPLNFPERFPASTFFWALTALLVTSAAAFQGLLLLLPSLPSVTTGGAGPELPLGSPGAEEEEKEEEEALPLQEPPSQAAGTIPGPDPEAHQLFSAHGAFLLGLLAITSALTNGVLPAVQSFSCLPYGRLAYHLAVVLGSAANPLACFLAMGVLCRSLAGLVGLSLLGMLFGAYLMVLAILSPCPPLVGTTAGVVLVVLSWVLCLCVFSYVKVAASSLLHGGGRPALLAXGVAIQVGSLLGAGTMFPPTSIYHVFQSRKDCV

binding result [1]: no binding (tested: 10 µg/mL)
IC50, PAR-2 β-arrestin cell assay [2]: 10.7 nM
IC50, PAR-2 calcium flux assay (trypsin EC80) [3]: 73.2 nM
B1: Ab20 (antibody, human IgG4, V domains shown)
VH: EVQLVESGGGLVQPKGSLKLSCAASGFTFNIYAMHWVRQAPGKGLEWVARIGSKSSNYATNYADSVKDRFTISRDDSQSMLCLQMNNLKTEDTAMYYCVREDYYGNSFDSWGQGTTLAVSS
VL: QIVLSQSPAILSASPGEKVTMTCRTSSSVIYIHWYQQKSGSSPKPWIYATSNLASGVPTRFSGSGSGTSYSLTISRVEAEDAATYYCHHWRSNPPTFGGGTKLEIK
notes: also called Anti-PAR-2 antibody # 20

binding result [1]: no binding (tested: 10 µg/mL)
PAR-2 calcium flux cell assay IC50 [4]: 8.6 nM
PAR-2 β-arrestin cell assay IC50, 1 µM SLIGKV [4]: 4.4 nM
IC50, PAR-2 β-arrestin cell assay [2]: 1.6 nM
IC50, PAR-2 calcium flux assay (trypsin EC80) [3]: 6.7 nM
B2: Ab309 (antibody, human IgG4, V domains shown)
VH: QVQLKESGPGLVQPSQTLSLTCTVSGFSLNSYGVIWARQPPGKGLDWMGVIWGNGNTYYNSDLKSRLSISRDTSKSQVFLKMNNLQAEDTALYFCARWRGYKDYPFDYWGQGVMVTVSS
VL: DIQMTQSPSFLSASVGDRVTFNCKASQNIYKYLDWYQQKLGEAPKLLIYNTNSLHTGIPSRFSGSGFGTDFTLTISSLQPEDVATYFCLQHNSGWTFGGGTKLELR

binding result [1]: no binding (tested: 10 µg/mL)
IC50, PAR-2 β-arrestin cell assay [2]: 8.4 nM
IC50, PAR-2 calcium flux assay (trypsin EC80) [3]: 50.5 nM
B3: Ab1 (antibody, human IgG4, V domains shown)
VH: EVQLVEFGGGLVQPKGSLKLSCAASGFTFNTNAMHWVRQAPGKGLEWVARIGSKSSYFATYYADSVKDRFTISRDDSRSMFYLQMNNLKTEDTAMYYCVREDYYGSSFDLWGQGTTLTVSS
VL: QIVLSQSPAILSASPGEKVTMTCRASSSLPYIHWYQQKPGSSPRPWIYATSNLASGVPARFSGRGSGTSYSLTISRMEAEDAATYYCQQWSSTPPTFGGGSKLEIK
notes: also called Anti-PAR-2 antibody # 1

binding result [1]: no binding (tested: 10 µg/mL)
IC50, PAR-2 β-arrestin cell assay [2]: 4.9 nM
IC50, PAR-2 calcium flux assay (trypsin EC80) [3]: 29 nM
B4: Ab39 (antibody, human IgG4, V domains shown)
VH: B3 VH with F7S, N32Y, F58Y, D75A, R78Q, F81L, M95I, S106C, L110Y
VL: QIVLSQSPVILSTSPGEKVTMTCRANSRVIYVHWYQQKPGSSPKPWIFATSNLASGVPSRFSGSGSGTSYSLTISRVETEDAATYYCQHCGNNPPTFGSGTKLEIK
notes: also called Anti-PAR-2 antibody # 39

binding result [1]: no binding (tested: 10 µg/mL)
IC50, PAR-2 β-arrestin cell assay [2]: 16.5 nM
IC50, PAR-2 calcium flux assay (trypsin EC80) [3]: 169 nM
B5: Ab77 (antibody, human IgG4, V domains shown)
VH: B3 VH with E6G, F7S, N32Y, F58Y, R78Q, F81L, F108Y, L110Y
VL: DIVMTQSHKFMSISVGDRVSITCKASQDVGTAVAWHQQKAGQSPKLLIYWASARHTGVPDRFTGSGSGTDFTLTISNVQSEDLTDFFCQQYSNYPFTFGSGTKLEIK
notes: also called Anti-PAR-2 antibody # 77

PAR-2 β-arrestin cell based assay IC50, 2 µM SLIGKV [5]: 1.4 nM
IC50, PAR-2 activating ligand-induced calcium flux in A549 cells [6]: 13.2 nM
binding result [7]: binds
IC50 mean, calcium flux at SLIGKV EC80, Nomad line [8]: 2.07 nM
IC50 mean, β-arrestin at SLIGKV EC80, Nomad line [8]: 5.38 nM
Calcium flux IC50 [9]: 17.4 nM
IL-6 release in A549 cells IC50 [9]: 5 nM
IL-8 release in A549 cells IC50 [9]: 4.62 nM
Kd [10]: 0.433 to 0.946 nM
Kd [11]: 4.45 nM
B6: P24E1102 (antibody, human IgG4 S228P, kappa, V domains shown)
VH: QVQLVQSGAEVKKPGSSVKVSCKASGFSLSSYAISWVRQAPGQGLEWMGVIWGNQNVYYAQKFQGRVTITADESTSTAYMELSSLRSEDTAVYYCARWKGYKDYPFDYWGQGTLVTVSS
VL: EIVLTQSPATLSLSPGERATLSCRASQNVYKWLDWYQQKPGQAPRLLIYNANTRATGIPARFSGSGSGRDFTLTISSLEPEDFAVYYCQQHHSGWTFGGGTKVEIKR
notes: human IgG4 S228P K447del / kappa; also called Anti-PAR-2 (P24E1102); TEV-56192 P24E1102
